Test: yeast display, Sf9 membrane polyspecificity reagent, FACS + sequencing; frameworks hold sequencing errors
Method in brief: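 Synthetic nanobody libraries on Saccharomyces cerevisiae BJ5465 were galactose-induced for 36–48 hours, stained 1 hour at 4 °C with 10% biotinylated, detergent-solubilized Sf9 membrane reagent and enriched on streptavidin microbeads. FACS then separated cells into low and high (top ~1%) gates by anti-HA (expression) and streptavidin (reagent binding) fluorescence. Genes were colony-PCR amplified, MiSeq 2 × 250 sequenced and CDR-length filtered. A clone's polyreactivity label is that of its gate of origin.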

| Sequence | polyreactivity (PSR sort gate) |
| --- | --- |
| QVQLVESGAGLVQAAGSLRISSAHSGFSFTYNAMGWYRQAPGKVTEFVASISRSGGRTYYADSVKGRFTISRDNANNTVYLQMNSLKPEDTAVYYCAARNAYVYGMDSWGKGTQVTVSS | low polyreactivity |
| QVQLVESGGCLVQAGGSLRLSCASSGIIIRKYAMGWYRQQPGKERELVAAITTRGSRTYYADSVKGRFTISRDNAKNTVYLQMNSLKPEDTAVYYCASDRYTVRMDYWGQGTQVTVSS | high polyreactivity |
| QVQLVESGGGLVQAGGSLRLSCAASGRNFAGYAMLWYRQAPGKERELVATISSGGSTYYADSVKGRFTISRDNAKNTVYLQKNSLKPEDTAVYYCAAEYGTRQYSSYYKLFNYWGQGTQVTVSS | low polyreactivity |
| QVQLVESVGGLVQAGRILRISCAASGFTLYYYDKGWYRQAPGKQRELVAGISSGDSTYYADSLKGRFTISRDNAKNTVYLHMNSLKPEDTAVYYCATGDSLYYRYWSNNYWGQGTQVTVSS | high polyreactivity |
| QVQLVESGGGLVQAGGRLRLSCAASGRIFYNYAMGWYRQAPGKERELVAAISGSGGSTYYADSVKGRFTISRDNAKNTVYLQMNSLKPEDTAVYYCSTSGPQYYSRNFDYWGQGTQVTVSS | low polyreactivity |
| QVQLVESGGGLVKAGGSLRLSCAASGRIFYNFSMGWSRQAHGKERELVAAISGSGGSTYYADSVKGRFTISRDNAKNTVYLQMNSLKPEDTAVYYCSTSGPQYYSRNFDYWGQGTQVTVSS | low polyreactivity |
| QVQLVESGGGLVQAGGSLRISCAASGGIFDTYVMGWYRQAPGKERELVAAISSSGSTTYADSVKGRFTISRDNAKNTVYLQMNSLKPEDTAVYYCNADYSTIWRYDYWGQGTQVTVSS | low polyreactivity |
| QVQLVESGGGLVQAGCSLRLSCAAYGSIFSYNAMGWYRQAPGKERELVASISWSGGRTFYADSVKGRFTISRDNAKNTVYLQMNSLKPEDTAVYYCAFRHYSTYYSRFGYWGQGTKVTVSS | high polyreactivity |
| QVQLVESGGGLVQAGGSLRLSCAASGRIFGLNSLGWYRQAPGNEMELVAAIDIIGGSTYYADSVKGRFTISRDNAKNTVYLQMNSLKPEDTAVYYCAAEADFWRYVEYDYWGQGTQVTVSS | low polyreactivity |
| QVQLVESGGGLVQAGGSLRLSCAASGRIFYYYVMGWYRQAPGKERELVAAISSRGGCTYYADSVKGRFTISRDNAKNTVYLQMNSLKPEDTAVYYCAAEYGSISLRYPYYWRYDYWGQGTQVTVSS | high polyreactivity |
| QVQLVESGGGLVQAGGSLRLSCAASGRIFYAYALGWYRQATGIERELVAAISRRGGSTYYADSVKGRFTISRDNAKNTVYLQMNSLKPEDTAVYYCAADRQFSYVYYIDPTAYEYCGQGTQVTVSS | high polyreactivity |
| QVQLVESGGGLVQAGGSLRLSCAASGRIFYQNVMGWYRQAPGKERELVAAITTSGGRTYYADSVKGRFTISRDNAKNTVYLQMNSLKPEDTAVYYCAAKASNRGYYYWGQGTQVTVSS | high polyreactivity |
| QVQLVESGGGLVQAGGSLRLSCAASGRTFNYNAMGCYRQAPGKERELVAAITSGGRTNYADSVKGRFTISRDNAKNTVYLQMNSLKPEDTAVYYCATEYYRYRWVGAFRYPVYYWGQGTQVTVSS | low polyreactivity |
| QVQLVESGGGLVQAGGSLRLSCAASGFIITYYAMGWYRQATGKDRELVAVISWSGGTTYYAESVKGRFTISRDNATNTVYLQMNSLKPEDTAVYYCAAYRYFRPGDYWGQGTQVTVSS | low polyreactivity |
| QGQLVESGGGLVQAGGSLRLSCPASGRIYVFYAMGRYRQATGKEREFVATISYSGDTTYYADSVKGRFTISRDNAKNTVYLQMNSLKPEDTAVYYCAADLVPSYYYVPMGYDSWGQGTQVTVSS | low polyreactivity |
| QVQLVESGGGLVQAGGRLRISCAASGAIFGEYPMGWYSQAPGKERELVADITTGGNTNYADSVKGRFTITRDNAKNTVYVHMNSLKPEDTAVYYCIAYGNTYGYWWFGYWGQGTQVNVSS | low polyreactivity |
| QVQLVESGGGLVQAGGSLRLSCADSGSIFRDNVMGWYRQAPGKEREFVAAISRRGGITYYADSVKGRFTISRDNAKNTVYLQMNSLKPEDTAVYYCATTGGRQYGYWGQGTQVTVSS | high polyreactivity |
| QVQLVESGGGLVQAGGSLRLSCAASGRIFVYYAMGWYRQAPGKERELVAAIRWTGGSTYYADSVKGRFTISRDNAKNTVYLQMNSLKPEDTAVYYCATVNRYGHFNYWGQGTQVTVSS | high polyreactivity |
| QVQLVESGGGLDQAGGSLRLSCASGRIFKKNAMGWYRQAPGNERELVAGITISGGRTYYADSVKGRFTISRDNAKNTVYLQMNSVKPEDTAVYYCNAGPDRRVSYYRLLDHWGQGTQVTVSS | low polyreactivity |
| QVQLVESGGGLVQAGGSLRLSCAASGRIFRYYAMGWYRQAPGKERELVAAISVSGGSTYYADSVKGRFTISRDNAKNTVYLKMNSLKPEDTAVYYCAARIKTYSKRYYWGQATQVTVSS | high polyreactivity |
| QVQLVESGGGLVQAGGSLRLSCAASGRIFTRNAMGLYRQAPGKERELVAAISWRGGSTYYADSVKGRFTISRDNAKNTVYLQMNSLKPEDTAVYYCAAQPWFGRAARYRTTYYYWGQGTQVTVSS | high polyreactivity |
| QVQLVESGGGIVQAGGSLRLSCAASGSIFQGNAMGWYRQAAGKERELVAAITYSGGSTYYADSVKGRFTISRDNAKNTVYLQMNSLKPEDTAVSYCNTTLRDSRQYVDRAPYTRYDYWGQGTQVTVSS | low polyreactivity |

| Sequence | polyreactivity (PSR sort gate) |
| --- | --- |
| QVQLVESGGGLVQAGGSLRLSCAASGRILGRNAMGWYRQAPGKEREFVAGISYSGTSTYYADSVKGRFTISRDNAKNTVYLQMNSLKPEDTAVYYCAVYTGRQPRVSGKYYYWGQGTQVTVSS | high polyreactivity |
| QVQLVESGGGLVQAGGSLRLSCAASGFIFGQYAMGWYRQAPGKERELVAAISWSGGRTNYADSVKGRFTISRDNAKNTVYLQMNSLKPEDTAVYYCAARKGKYPQYPYGYWGQGTQVTVSA | high polyreactivity |
| QVQLVESGGGLVQAGGSLRLSCAASGSTFHLYAMGWNRQAPGKERQFVAAIRGRGGNTYADSVKGRFTISRDNAKNTVYLQMNSLKPEDTAVYYCAAPLLRDLRSPYSYNYWGQGSQVTVSS | low polyreactivity |
| QVQLVESGGGLVQAGGSLRLSCAASGRTFFGYAMGWYRQAPGKERELVAAISGGGRTNYADSVKGRFTISRDNAKNTVYLQMNSLKPEDTAVYYCAARLVKYFRPYDYWGQGTQVTVSS | high polyreactivity |
| QDQLVESGGGLVQAVGSLRLSCAASGRIFVYNAMGGYRQAPGKEREFVATITSSGGRTYYADSVKGRFTISRDNSKNTVYLQMNSLKPEDTAVYYCAARPQNNGRNPVYRYNYWGQGTQVTVSS | high polyreactivity |
| QVQLVESGGRLVQAGCSLRLSCAASGSIFDVYAMGWYRPAPGKERELVAAISRGGRTYYADSVKGRFTISRDNAKNTVYLQMNSLKPEDTAVYYCAAVTRLDGNMDYWGQGTQVTVSS | high polyreactivity |
| QVQLVESGGGLVQAGGSLRLSCAAYGRIFPLNAMGWNRQAPGKERELVAAISYDGGTYYAYSVKGRFTISRDNAKNTFYLQMNSLKPEDTAVYYCANSRATWVGKHDYWGQGTQVTVSS | low polyreactivity |
| QVQRVESGGGLVQAGGSLRLSCAASGGIFAVNVMGWYRPAPGKERELVAAITSTGSTYYADSVKGRFTISRDNAKNTVYLQMNSLKPEDTAVYYCAADYVYYDSYDDTVFGYEYWGQGTQVTVSS | high polyreactivity |
| QVHLVESGGGLVQAGCSLRLSCAASGFTYYYYAIGWYRQAPGTEMELVAAISSGGSTNYADSVKGRFTISRDNANNTVYLQMNSLKPEDTAVYYCAATQPYWWAYRYDYWGQGTKVTVSS | low polyreactivity |
| QVQLVESGGGLVQAGGSLRLSCAASGITFDKNTMGWYRQEPGKVRELVAAISARGGSTYYADSVKGRFTISRDNSKNTVYLQMNSLKPEDTAVYYCAARSGYGPYRMDYWGQGTQVTVSS | high polyreactivity |
| QFQLVESGGGLVQAGGSLRLSCAASGRTFGFNAMGWYIQAPGKERELVAAISGSGGRTYYADSVKGRFTISRDKPKNTVYLQMNSLKPEDTAVYYCAAGARRGGSGYLGQGTQVTVSS | high polyreactivity |
| QVQLVESGGGLVQAGGSLRLSCAASGRTFYSNVMGWYRQAPGKERELVAAISSSTYYADSVKGRFTISRDNANNTVYLQMNSLKPEDTAVYYCAAYSRYYPYYRYGYLGQGTQVTVSS | high polyreactivity |
| QVQLVESGGGLVQEVGSLRLSCAATGRTFYQNVMGWSRQARGKERELVAAISQRGGRTYYADSVKGRFTISRDNAKITVYLQMNSLKPEDTEVYYCNADSTVWPYDYWGQGTQVTVSS | low polyreactivity |
| QVQLVESGAGLVQAGGSLRLSCAASGSIFQPDAMGWYRQAPGKERELVAAITNCGSTYYADSVKGRFTISRDNAKNTVYLQMNSLNPEVTAVYYCAADVQSSHEYDYWGQGTQVTVSS | low polyreactivity |
| QVQLVESGGGLVQAGGSLRLSCAASGRTFGSYAMGWYRQAPGTERELVAAITWSGTGTYYADSVKGRFTISRDKAKNTVYLQMHSLKPEDTAVYYCNTDRWYAYDWGQGTQVTVSS | high polyreactivity |
| QVQLVESGGGLVQAGGSLRLSCAASGFIFQSYAMGWYRQAPGKERELVAAISSRGGSTYYADSVKGRFTISRDIAKNTVYLQMNSLKPEDTAVYYCAADLYGNEYDYWGQGTQVTVSS | low polyreactivity |
| QVQLVESGGGLVQAGGSLRLSCAASGITFYGYDMGWYRQAPGKERELFAAISRSGGSTYYADSVKGRFTISRDNAKNTVYLQMNSLKPEDTAVYYCAADKQGYLGRTAFRYYYWGQGTQVTVSS | high polyreactivity |
| QVQLVESGGGLVQAGGSLRLSCAASGRIFTRNVMGWYRQAPGKERELVAAITTNGGSTYYADSVKGRFTISRDNAKNTVYLQMNSLKPEDTAVYYCAKRTVHYTWVYYWGQGTQVTVSS | high polyreactivity |
| QVQLVESGGGLVQAGGSLSLSCAASGIFKYYMGWYRQAPGKERELVAGITKRGGSTYYADSVKGRFTISRDNAKNTVYLQKNSLKPEDTAVYYCNAVGPKRYDYWGQGTQVTVSS | high polyreactivity |
| QVQLVESGGGLVQAGGSLRLSCAASGRIFFIYVMGWYRQAPGKERELVAGITRGGSTNYADSVKGRFTISRDNAKNTVYLQMNSLKPEDTAVYYCAAAVLSYRHAHAGYYYGKGDYWGQGTQVTVSS | high polyreactivity |
| QVQLVESGGGLVQAGCSLRLSCAASGSIYPYAMGCYRQAPGKESELVAAINFNGGRTYYAHSVNGRFTISRDNAKNTVYLQMTSLKPDVTAFYYCAARISVYSTLPNDFDYWGQGTQVTVSS | high polyreactivity |
